These results are taken from patent publication US20220211018A1.

Data set [1] deals with human thrombomodulin (hTBM) expressed from the B200 vector on porcine aortic endothelial cells (UniProt P07204).
The target in another data set is collagen agonist. As to the kind of experiment: cell-based or functional assay. The following applies: scale: % more aggregation than the monoallelic vWF edit blood.

UniProt P07204, sequence (P07204 whole entry, looked up): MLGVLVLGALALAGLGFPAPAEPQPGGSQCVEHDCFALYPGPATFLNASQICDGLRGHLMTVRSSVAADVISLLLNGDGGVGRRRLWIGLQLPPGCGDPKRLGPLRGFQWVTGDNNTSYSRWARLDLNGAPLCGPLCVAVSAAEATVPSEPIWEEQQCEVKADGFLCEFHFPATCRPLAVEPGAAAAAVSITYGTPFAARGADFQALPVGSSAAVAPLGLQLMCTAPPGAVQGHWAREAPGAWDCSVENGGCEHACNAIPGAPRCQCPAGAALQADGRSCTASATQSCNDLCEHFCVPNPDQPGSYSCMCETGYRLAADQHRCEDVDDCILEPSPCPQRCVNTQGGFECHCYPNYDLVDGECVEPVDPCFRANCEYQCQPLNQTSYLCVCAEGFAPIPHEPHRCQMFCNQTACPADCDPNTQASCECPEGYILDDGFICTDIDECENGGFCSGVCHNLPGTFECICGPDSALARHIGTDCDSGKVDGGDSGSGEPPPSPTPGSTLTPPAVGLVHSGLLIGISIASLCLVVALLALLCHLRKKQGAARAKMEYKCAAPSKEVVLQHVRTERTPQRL

For the substance human thrombin, the “activated protein C (APC) assay on pAEC: human thrombin and human Protein C added, Chromogenix S-2366 substrate, absorbance at 405 nm, nM APC/mg protein” value in data set [1] was “pAEC from a transgenic pig expressing hTBM and hEPCR from the B200 vector showed a significantly elevated APC levels when compared to GTKO transgenic pig control”. “porcine von Willebrand factor (unmodified) (from UniProt Q28833 438-2482)” showed a whole blood platelet aggregation (Chrono-log Whole Blood Aggregometer) after collagen agonist (2 ug/mL) with collagen agonist of 50.
